Reference: publication PMC9981704, “PARP1 allows proper telomere replication through TRF1 poly (ADP-ribosyl)ation and helicase recruitment”

Legend:
[1] = biological target: TRF1 (unmodified, His-tagged full length) (human, UniProt P54274 1-439); test: EMSA; unmodified TRF1, 1 ug protein, 0.5 ng DNA; 20 mM Hepes pH 7.9, 100 mM NaCl, 50 mM KCl, 1 mM MgCl2, 0.1 mM EDTA, 1 mM DTT, 5% glycerol, 0.5 mg/ml BSA, 0.1% NP-40; 4 °C, 90 min; native 4.5% PAGE; settings: protein: recombinant; tags: His (pTrc-HisB); chain copies: 2; label: 32P 5' end label (T4 PNK); blunt
[2] = biological target: PARP1 (high specific activity) (human, UniProt P09874 1-1014); test: EMSA; PARP1 alone, control from PARylation reaction; did not affect DNA migration; 20 mM Hepes pH 7.9, 100 mM NaCl, 50 mM KCl, 1 mM MgCl2, 0.1 mM EDTA, 1 mM DTT, 5% glycerol, 0.5 mg/ml BSA, 0.1% NP-40; 4 °C, 90 min; native 4.5% PAGE; settings: protein: commercial; label: 32P 5' end label (T4 PNK); blunt
PARP1 (high specific activity), sequence (P09874 whole entry): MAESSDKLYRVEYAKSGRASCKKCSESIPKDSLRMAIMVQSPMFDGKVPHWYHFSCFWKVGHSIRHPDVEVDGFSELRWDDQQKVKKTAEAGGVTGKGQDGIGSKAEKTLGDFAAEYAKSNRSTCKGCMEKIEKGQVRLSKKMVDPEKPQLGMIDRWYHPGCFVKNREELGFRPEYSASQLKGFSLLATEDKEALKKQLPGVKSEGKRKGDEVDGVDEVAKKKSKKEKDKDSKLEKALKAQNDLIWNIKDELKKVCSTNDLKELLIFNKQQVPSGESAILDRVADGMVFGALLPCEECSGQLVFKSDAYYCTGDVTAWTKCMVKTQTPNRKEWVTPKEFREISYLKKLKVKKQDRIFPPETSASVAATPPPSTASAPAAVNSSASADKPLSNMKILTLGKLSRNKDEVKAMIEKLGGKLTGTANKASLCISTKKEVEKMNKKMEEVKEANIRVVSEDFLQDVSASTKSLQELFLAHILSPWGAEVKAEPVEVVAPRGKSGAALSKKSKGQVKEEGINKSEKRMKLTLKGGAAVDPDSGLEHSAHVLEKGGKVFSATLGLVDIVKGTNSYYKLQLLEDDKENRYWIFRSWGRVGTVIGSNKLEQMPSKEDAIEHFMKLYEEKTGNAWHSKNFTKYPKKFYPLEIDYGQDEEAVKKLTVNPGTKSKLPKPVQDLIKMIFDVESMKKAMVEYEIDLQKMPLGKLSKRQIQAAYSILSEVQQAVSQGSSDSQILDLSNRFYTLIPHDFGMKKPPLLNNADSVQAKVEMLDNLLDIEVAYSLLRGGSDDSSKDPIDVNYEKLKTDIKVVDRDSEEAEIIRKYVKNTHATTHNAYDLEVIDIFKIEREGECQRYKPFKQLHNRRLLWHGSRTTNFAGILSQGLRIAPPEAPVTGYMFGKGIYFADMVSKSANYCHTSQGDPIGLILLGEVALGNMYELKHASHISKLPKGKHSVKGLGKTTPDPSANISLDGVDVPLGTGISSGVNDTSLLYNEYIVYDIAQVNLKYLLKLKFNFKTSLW

TRF1 (unmodified, His-tagged full length), sequence (P54274 whole entry): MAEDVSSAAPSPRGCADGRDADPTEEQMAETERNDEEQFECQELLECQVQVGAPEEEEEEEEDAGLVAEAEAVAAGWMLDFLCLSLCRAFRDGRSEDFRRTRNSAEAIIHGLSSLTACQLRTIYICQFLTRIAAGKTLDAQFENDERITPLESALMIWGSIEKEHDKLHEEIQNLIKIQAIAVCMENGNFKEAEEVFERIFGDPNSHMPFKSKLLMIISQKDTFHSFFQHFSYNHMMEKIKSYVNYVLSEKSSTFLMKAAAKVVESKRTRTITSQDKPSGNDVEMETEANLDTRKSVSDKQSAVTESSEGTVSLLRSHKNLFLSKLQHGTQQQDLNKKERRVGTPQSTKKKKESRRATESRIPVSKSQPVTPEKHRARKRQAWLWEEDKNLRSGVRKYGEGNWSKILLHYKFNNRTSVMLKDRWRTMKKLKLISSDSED

B1: telomeric duplex DNA (dsDNA)
DNA 1: GGGTTAGGGTTAGGGTTAGGGTTAGGGTTAGGGTTAGGGTTAGGGCCCCTC
DNA 2: GAGGGGCCCTAACCCTAACCCTAACCCTAACCCTAACCCTAACCCTAACCC
[1]
  binding result: binds
[2]
  binding result: no binding
